Values joined by “and” are separate entries in the source; they are usually repeats but may differ in a detail not shown here. Equal entries are not always repeated.
Experiments:
COLO205 tumors [1] = assay: Ex vivo tumor uptake by γ-counting in COLO205 tumor-bearing mice; design: species or system nude mice; details: mean ± SEM
Protocol: (§1) Irinotecan was administered by intra-peritoneal (i.p.) injection (80 mg/kg) three times in 1 week every other day (n = 3).

[2] = Human residence time estimates scaled from mouse μSPECT time-activity curves; format: in vivo, human (extrapolated from mouse); details: scaled from mouse μSPECT TACs, n = 3 non-purified, n = 6 purified
From the text: (§2) Volumes of interest (VOIs) were manually drawn on the μSPECT-CT images using PMOD v3.3 (PMOD Technologies, Switzerland) to delineate the regions with distinct SPECT time-activity pattern: heart, liver, kidney, and urinary bladder, as well as whole-body. The average organ activity per volume was obtained from the co-registered μSPECT images and the non-decay corrected time activity curves (TACs) were extracted for each target organ. In order to relate the scanner units (counts/pixel) to radioactivity concentration (kilobecquerel per cubic centimeter), a scanner calibration factor was estimated by scanning a syringe with a known concentration of Tc-99m. TACs for each organ, as well as the TACs representing the activity in the remainder of the body, were fitted by a single exponential decaying function, which was then integrated to obtain the total number of disintegrations (residence time) within these regions. In order to predict human dosimetry using animal data, interspecies extrapolation is necessary. Thus, the residence times (R) were scaled to human values according to the following formula [21]: R/gorganmouse⋅kgTBweightmouse⋅gorgan/kgTBweighthuman=Rhuman
(§3) The human organ and body weight values from the standard adult male phantom taken into account are implemented in the internal dosimetry software (OLINDA/EXM v1.1) and are assumed to be constant across individuals. The body weight and organ masses for the individual mice were obtained post-mortem. For the bladder model, the fraction leaving the body via the urinary excretion system (f) and the biological half-life of the excretion (t1/2) were estimated by fitting a first-order linear system to the sum of activity in the bladder and the activity that had been excreted (calculated as total injected activity minus total body activity): y=f1−expln2/t1/2t

[3] = Projected human organ absorbed doses and effective dose (OLINDA/EXM); format: in vivo, human (extrapolated from mouse); details: OLINDA/EXM v1.1, adult male model, 2-h voiding, from mouse data
From the text: as §2, §3
Projected human absorbed doses to various organs and the effective doses (ED) were then computed using the aforementioned dosimetry software (weighting factors from International Commission on Radiological Protection 60), with the human residence times as input, using the standard adult male model and the dynamic voiding bladder model (2-h voiding interval).

[4] = Bladder model fit of urinary excretion; format: in vivo, CD1−/− nude female mice; details: first-order fit of bladder plus excreted activity
From the text: as §3

[5] = In vivo plasma metabolite analysis by radio-HPLC; design: species or system CD1−/− nude mice; details: mouse plasma 4 and 24 h p.i., 37 MBq purified tracer i.v., acetonitrile deproteination, radio-RP-HPLC with γ-counted fractions; n = 3 per time point
Protocol: In vivo metabolite analysis
Four and 24 h p.i. (n=3 for each […]
time point) mixed blood was drawn by cardiac puncture, and the mice were euthanized by cervical dislocation. The blood was collected in EDTA-coated tubes and the plasma fraction was obtained by centrifugation (4000 g for 7 min). The plasma (200 µl) was mixed with an equal amount of cold acetonitrile to enable sample deproteination and counted for radioactivity using an automatic γ-counter. After vortexing and centrifuging for 4 min at 4000 g, the supernatant was separated from the pellet and both fractions were γ-counted to calculate the amount of radioactivity extracted in acetonitrile. To study radiometabolite formation, 100 µl of the supernatant were analyzed by RP-HPLC using the method described before. Eluate fractions of 0.5 min were collected and counted for radioactivity in the γ-counter.
Adult normal CD1-/- nude mice were used to examine the metabolic stability of […]
According to the radio-HPLC analysis of the plasma samples, the majority of the injected radiotracer remains unchanged after 4 and 24 h p.i. (Figs. 1b and c, respectively).
One minor polar impurity was detected eluting at 3 min. As it was also visible in the reference […]
Radiometabolites eluting with a longer retention time (18.5 – 30 min) could also be detected.

COLO205 tumors [6] = assay: In vivo tumor uptake by μSPECT-CT in COLO205 tumor-bearing mice; design: species or system nude mice; details: for mean tumor uptake: μSPECT 4 h p.i., 37 MBq i.v., mean ± SEM, n = 6 tumors
Protocol: as §1

CC(C)[C@@H]1NC(=O)[C@H](Cc2ccccc2)NC(=O)[C@@H]2NC(=O)[C@H](Cc3ccccc3)NC(=O)[C@@H]3CCCN3C(=O)CNC(=O)[C@H](Cc3ccccc3)NC(=O)[C@@H]3CNCCCC[C@@H](C(=O)O)NC(=O)[C@@H]4NC(=O)[C@H](CC(N)=O)NC(=O)CNC(=O)[C@H]([C@@H](O)C(=O)O)NC(=O)[C@H](CSC[C@@H](NC(=O)[C@H](CCC(N)=O)NC(=O)[C@H](CCCCNC(=O)c5ccc(NN)nc5)NC(=O)[C@@H](N)CS[C@H]4C)C(=O)N[C@@H](CS[C@H]2C)C(=O)N3)NC1=O [purified [^99mTc]duramycin] [metal not drawn]
tumor uptake by γ-counting (COLO205 tumors [1]; control (vehicle) tumors): 0.74 ± 0.04 %I.D./g | tumor uptake by γ-counting (COLO205 tumors [1]; irinotecan-treated tumors): 1.65 ± 0.13 %I.D./g | Mean human residence time, heart contents [2]: 0.027 h | Mean human residence time, kidneys [2]: 0.0549 h | Mean human residence time, liver [2]: 0.075 h | Mean human residence time, remaining body [2]: 2.54 h | Mean human residence time, urinary bladder contents [2]: 6.43 × 10 ^−1 h | Mean human absorbed dose, total body [3]: 1.62 × 10^−3 mGy/MBq | Mean human organ absorbed dose, LLI wall [3]: 2.97 × 10^−3 mGy/MBq | Mean human organ absorbed dose, ULI wall [3]: 2.03 × 10^−3 mGy/MBq | Mean human organ absorbed dose, adrenals [3]: 1.74 × 10^−3 mGy/MBq | Mean human organ absorbed dose, brain [3]: 1.14 × 10^−3 mGy/MBq | Mean human organ absorbed dose, breasts [3]: 9.59 × 10^−4 mGy/MBq | Mean human organ absorbed dose, gallbladder wall [3]: 1.84 × 10^−3 mGy/MBq | Mean human organ absorbed dose, heart wall [3]: 1.91 × 10^−3 mGy/MBq | Mean human organ absorbed dose, kidneys [3]: 3.63 × 10^−3 mGy/MBq | Mean human organ absorbed dose, liver [3]: 1.64 × 10^−3 mGy/MBq | Mean human organ absorbed dose, lungs [3]: 1.36 × 10^−3 mGy/MBq | Mean human organ absorbed dose, muscle [3]: 1.55 × 10^−3 mGy/MBq | Mean human organ absorbed dose, osteogenic cells [3]: 3.92 × 10^−3 mGy/MBq | Mean human organ absorbed dose, ovaries [3]: 2.96 × 10^−3 mGy/MBq | Mean human organ absorbed dose, pancreas [3]: 1.82 × 10^−3 mGy/MBq | Mean human organ absorbed dose, red marrow [3]: 1.48 × 10^−3 mGy/MBq | Mean human organ absorbed dose, skin [3]: 9.56 × 10^−4 mGy/MBq | Mean human organ absorbed dose, small intestine [3]: 2.22 × 10^−3 mGy/MBq | Mean human organ absorbed dose, spleen [3]: 1.59 × 10^−3 mGy/MBq | Mean human organ absorbed dose, stomach wall [3]: 1.59 × 10^−3 mGy/MBq | Mean human organ absorbed dose, testes [3]: 2.07 × 10^−3 mGy/MBq | Mean human organ absorbed dose, thymus [3]: 1.39 × 10^−3 mGy/MBq | Mean human organ absorbed dose, thyroid [3]: 1.38 × 10^−3 mGy/MBq | Mean human organ absorbed dose, urinary bladder wall [3]: 2.70 × 10^−2 ± 3.05 × 10^−3 mGy/MBq and 2.70 × 10 ^−2 mGy/MBq | Mean human organ absorbed dose, uterus [3]: 4.57 × 10^−3 ± 3.42 × 10^−4 mGy/MBq and 4.57 × 10 ^−3 mGy/MBq | f, mean fraction leaving the body via the urinary excretion system [4]: 0.697 | t 1/2, mean biological half-life of the excretion [4]: 2.151 h | in vivo plasma (metabolic) stability [5]: unchanged | tumor-to-blood uptake ratio, irinotecan-treated over vehicle-treated mice (COLO205 tumors [6]; 4 h p.i.): 6 fold | tumor-to-muscle uptake ratio, irinotecan-treated over vehicle-treated mice (COLO205 tumors [6]; 4 h p.i.): 2 fold | mean tumor uptake (COLO205 tumors [6]; irinotecan-treated group, 24 h after last dose): 148.50 ± 25.42 %I.D./g/kg | mean tumor uptake (COLO205 tumors [6]; vehicle-treated group): 40.58 ± 2.81 %I.D./g/kg
